Here are results for 4 substances from publication PMC10039049.

The target in the assay is extracellular leucine-rich repeat (LRR) domain of OsER1 (OsER1^LRR) (rice (Oryza sativa)) (UniProt Q69SP5). Briefly: ITC; about 0.3 mM OsEPFL peptide injected (24 x 1.5 uL) into 0.03 mM OsER1^LRR in the cell; ITC200, 25 °C, 10 mM Bis-Tris pH 6.0, 100 mM NaCl.
Sequence of UniProt Q69SP5 (Q69SP5 25-577): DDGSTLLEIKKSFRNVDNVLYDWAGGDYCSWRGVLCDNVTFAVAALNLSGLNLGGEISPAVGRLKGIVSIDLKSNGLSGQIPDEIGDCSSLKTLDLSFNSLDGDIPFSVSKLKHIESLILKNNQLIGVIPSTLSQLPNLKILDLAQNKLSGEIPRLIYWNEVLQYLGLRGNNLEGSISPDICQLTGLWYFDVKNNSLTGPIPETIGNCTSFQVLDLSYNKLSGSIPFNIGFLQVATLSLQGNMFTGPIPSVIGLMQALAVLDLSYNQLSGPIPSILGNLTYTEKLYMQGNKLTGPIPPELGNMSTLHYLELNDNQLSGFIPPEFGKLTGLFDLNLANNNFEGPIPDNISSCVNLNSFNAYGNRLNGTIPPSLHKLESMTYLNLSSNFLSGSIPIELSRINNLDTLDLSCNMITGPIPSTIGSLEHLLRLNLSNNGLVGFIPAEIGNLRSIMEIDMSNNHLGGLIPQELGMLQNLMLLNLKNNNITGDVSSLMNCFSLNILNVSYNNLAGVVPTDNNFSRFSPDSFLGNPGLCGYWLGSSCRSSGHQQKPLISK

In turn, predicted mature small peptide OsEPFL6 came in with a Kd of 1.35 µM.

In turn, predicted mature small peptide OsEPFL7 displayed a Kd of 1.02 µM.

For the substance predicted mature small peptide OsEPFL8, the Kd is 18.7 µM.

predicted mature small peptide OsEPFL9 had a Kd of 56.8 µM.
